Test results reported in patent US20110124010A1.

Columns and labels:
[1] = target: Myelin basic protein (MBP) (human) (UniProt P02686); assay: flow cytometry, intracellular staining of CD14+ macrophages from CSF; isotype control background
[2] = target: Myelin basic protein (MBP) (human) (UniProt P02686); assay: flow cytometry, intracellular staining of CD14+ macrophages from peripheral blood; isotype control background

UniProt P02686, sequence (P02686 whole entry): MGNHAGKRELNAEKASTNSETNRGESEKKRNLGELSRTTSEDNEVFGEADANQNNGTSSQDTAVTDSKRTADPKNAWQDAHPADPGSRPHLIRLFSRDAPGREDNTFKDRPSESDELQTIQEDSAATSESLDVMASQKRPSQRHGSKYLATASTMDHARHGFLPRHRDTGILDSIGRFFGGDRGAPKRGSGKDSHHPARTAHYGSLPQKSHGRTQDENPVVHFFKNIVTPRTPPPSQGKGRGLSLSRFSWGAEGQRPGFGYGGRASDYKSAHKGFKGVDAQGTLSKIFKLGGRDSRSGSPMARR

Non-specific isotype specific antibody (Rabbit IgG) from Epitomics
Geometric Mean FI [1]: 292
Mean FI [1]: 328
Geometric Mean FI [2]: 766
Mean FI [2]: 783
